The record followed here is patent publication US10888549B2, “Pharmaceutical agents targeting cancer stem cells” (THE JOHNS HOPKINS UNIVERSITY, priority 2016, dated 2021).

The subject of one assay is YAP1. The assay is described as follows: YAP1 expression by western blotting. Type of assay: cell-based, human. The conditions noted are these: basal-type cells. As for the experimental part:
Whole cell lysates were extracted using RIPA buffer (Thermo Scientific) supplemented with 10 μL/mL Halt™ Protease Inhibitor Cocktail Kit (Life Technologies) and 30 μL/mL Halt™ Phosphatase Inhibitor Cocktail Kit (Life Technologies). The protein concentrations were determined using a Pierce™ BCA Protein Assay Kit (Life Technologies), and the protein were separated on NuPAGE® 4-12% Bis-Tris Gel (Life Technologies) according to the manufacturer's protocol. COX2 (D5H5), NANOG (D73G4), OCT4 (D7O5Z), CD133 (A3G6K), Snail (C15D3), ZEB1 (D80D3), Vimentin (D21H3), CDH2 (D4R1H), CDH1 (24E10), p-EGFR (D7A5), EGFR (D38B1), p-AKT (D9E), AKT (cat #, 9272), p-ERK (D13.14.4E), ERK (137F5), p-YAP1 (D9W2I), p-Src (cat #, 2101), Src (36D10), DNMT1 (D63A6), DNMT3A (D23G1), and DNMT3B (D7O7O) antibodies were obtained from Cell Signaling Technology (Danvers, Mass., USA), except for SOX2 (EPR3131; Abcam, Cambridge, USA), YAP1 (ab52771; Abcam), CD24 (cat #, AF5247-SP; R&D Systems, Minneapolis USA) and β-actin (A2228; Sigma-Aldrich). Secondary horseradish peroxidase (HRP)-conjugated antibodies were obtained from Cell Signaling Technology, and chemiluminescent detection of HRP-labeled antibodies was performed using Amersham ECL Prime Western Blotting Detection Reagent (GE Healthcare, Piscataway, USA). As loading control, β-actin was used.
Background: In western blotting, separated proteins are transferred to a membrane and probed.

A further assay relates to SOX2. The assay is described as follows: SOX2 expression by western blotting / flow cytometry. Type of assay: cell-based, human. The conditions noted are these: basal-type cells. As for the experimental part: Whole cell lysates were extracted using RIPA buffer (Thermo Scientific) supplemented with 10 μL/mL Halt™ Protease Inhibitor Cocktail Kit (Life Technologies) and 30 μL/mL Halt™ Phosphatase Inhibitor Cocktail Kit (Life Technologies). The protein concentrations were determined using a Pierce™ BCA Protein Assay Kit (Life Technologies), and the protein were separated on NuPAGE® 4-12% Bis-Tris Gel (Life Technologies) according to the manufacturer's protocol. […]
For extracellular staining, cells (1×10^6/100 μL stain buffer) were incubated with PE-Vio770-conjugated anti-human CD133 (293C3; Miltenyi Biotec, Auburn, USA) or PE-conjugated anti-human CD24 antibody (cat #, 560991; BD Biosciences) for 30 min at 4° C. in dark. […] Data were acquired on a BD FACSCalibur flow cytometer (BD Biosciences) using BD CellQuest Pro software (BD Biosciences) and analyzed with FlowJo software v10.1 (Tree Star, Ashland, USA).

B1: EGF: Recombinant human epidermal growth factor (EGF) (protein, UniProt P01133 23-1207, looked up)
Pro-epidermal growth factor: PQHWSCPEGTLAGNGNSTCVGPAPFLIFSHGNSIFRIDTEGTNYEQLVVDAGVSVIMDFHYNEKRIYWVDLERQLLQRVFLNGSRQERVCNIEKNVSGMAINWINEEVIWSNQQEGIITVTDMKGNNSHILLSALKYPANVAVDPVERFIFWSSEVAGSLYRADLDGVGVKALLETSEKITAVSLDVLDKRLFWIQYNREGSNSLICSCDYDGGSVHISKHPTQHNLFAMSLFGDRIFYSTWKMKTIWIANKHTGKDMVRINLHSSFVPLGELKVVHPLAQPKAEDDTWEPEQKLCKLRKGNCSSTVCGQDLQSHLCMCAEGYALSRDRKYCEDVNECAFWNHGCTLGCKNTPGSYYCTCPVGFVLLPDGKRCHQLVSCPRNVSECSHDCVLTSEGPLCFCPEGSVLERDGKTCSGCSSPDNGGCSQLCVPLSPVSWECDCFPGYDLQLDEKSCAASGPQPFLLFANSQDIRHMHFDGTDYGTLLSQQMGMVYALDHDPVENKIYFAHTALKWIERANMDGSQRERLIEEGVDVPEGLAVDWIGRRFYWTDRGKSLIGRSDLNGKRSKIITKENISQPRGIAVHPMAKRLFWTDTGINPRIESSSLQGLGRLVIASSDLIWPSGITIDFLTDKLYWCDAKQSVIEMANLDGSKRRRLTQNDVGHPFAVAVFEDYVWFSDWAMPSVMRVNKRTGKDRVRLQGSMLKPSSLVVVHPLAKPGADPCLYQNGGCEHICKKRLGTAWCSCREGFMKASDGKTCLALDGHQLLAGGEVDLKNQVTPLDILSKTRVSEDNITESQHMLVAEIMVSDQDDCAPVGCSMYARCISEGEDATCQCLKGFAGDGKLCSDIDECEMGVPVCPPASSKCINTEGGYVCRCSEGYQGDGIHCLDIDECQLGEHSCGENASCTNTEGGYTCMCAGRLSEPGLICPDSTPPPHLREDDHHYSVRNSDSECPLSHDGYCLHDGVCMYIEALDKYACNCVVGYIGERCQYRDLKWWELRHAGHGQQQKVIVVAVCVVVLVMLLLLSLWGAHYYRTQKLLSKNPKNPYEESSRDVRSRRPADTEDGMSSCPQPWFVVIKEHQDLKNGGQPVAGEDGQAADGSMQPTSWRQEPQLCGMGTEQGCWIPVSSDKGSCPQVMERSFHMPSYGTQTLEGGVEKPHSLLSANPLWQQRALDPPHQMELTQ
modifications: Pro-epidermal growth factor
For the molecule B1, the YAP1 expression result with YAP1 is listed as “increased”. The SOX2 expression result in the assay with SOX2 is listed as “increased”.
